Measurements published in PMC10204187, “The effects of nature‐inspired amino acid substitutions on structural and biochemical properties of the E. coli L‐asparaginase EcAIII” (Protein Science : A Publication of the Protein Society, 2023).

B1: EcAIII (Escherichia coli K-12) (protein)
chain 1: GKAVIAIHGGAGAISRAQMSLQQELRYIEALSAIVETGQKMLEAGESALDVVTEAVRLLEECPLFNAGIGAVFTRDETHELDACVMDGNTLKAGAVAGVSHLRNPVLAARLVMEQSPHVMMIGEGAENFAFARGMERVSPEIFSTSLRYEQLLAARKEGATVLDHSGAPLDEKQKMG
chain 2: TVGAVALDLDGNLAAATSTGGMTNKLPGRVGDSPLVGAGCYANNASVAVSCTGTGEVFIRALAAYDIAALMDYGGLSLAEACERVVMEKLPALGGSGGLIAIDHEGNVALPFNTEGMYRAWGYAGDTPTTGIYREKGDTVATQ
notes: untagged as described; EcAIII gene in pET11d, bacterial expression; precursor autoproteolytically matured to subunits alpha and beta from one gene, (alphabeta)2; purified by DEAE and SEC
B2: EcAIII (Escherichia coli K-12; M200K) (protein)
chain 1: GKAVIAIHGGAGAISRAQMSLQQELRYIEALSAIVETGQKMLEAGESALDVVTEAVRLLEECPLFNAGIGAVFTRDETHELDACVMDGNTLKAGAVAGVSHLRNPVLAARLVMEQSPHVMMIGEGAENFAFARGMERVSPEIFSTSLRYEQLLAARKEGATVLDHSGAPLDEKQKMG
chain 2: TVGAVALDLDGNLAAATSTGGKTNKLPGRVGDSPLVGAGCYANNASVAVSCTGTGEVFIRALAAYDIAALMDYGGLSLAEACERVVMEKLPALGGSGGLIAIDHEGNVALPFNTEGMYRAWGYAGDTPTTGIYREKGDTVATQ
notes: as for B1
B3: EcAIII (Escherichia coli K-12; M200T) (protein)
chain 1: GKAVIAIHGGAGAISRAQMSLQQELRYIEALSAIVETGQKMLEAGESALDVVTEAVRLLEECPLFNAGIGAVFTRDETHELDACVMDGNTLKAGAVAGVSHLRNPVLAARLVMEQSPHVMMIGEGAENFAFARGMERVSPEIFSTSLRYEQLLAARKEGATVLDHSGAPLDEKQKMG
chain 2: TVGAVALDLDGNLAAATSTGGTTNKLPGRVGDSPLVGAGCYANNASVAVSCTGTGEVFIRALAAYDIAALMDYGGLSLAEACERVVMEKLPALGGSGGLIAIDHEGNVALPFNTEGMYRAWGYAGDTPTTGIYREKGDTVATQ
notes: as for B1
B4: EcAIII (Escherichia coli K-12; M200L) (protein)
chain 1: GKAVIAIHGGAGAISRAQMSLQQELRYIEALSAIVETGQKMLEAGESALDVVTEAVRLLEECPLFNAGIGAVFTRDETHELDACVMDGNTLKAGAVAGVSHLRNPVLAARLVMEQSPHVMMIGEGAENFAFARGMERVSPEIFSTSLRYEQLLAARKEGATVLDHSGAPLDEKQKMG
chain 2: TVGAVALDLDGNLAAATSTGGLTNKLPGRVGDSPLVGAGCYANNASVAVSCTGTGEVFIRALAAYDIAALMDYGGLSLAEACERVVMEKLPALGGSGGLIAIDHEGNVALPFNTEGMYRAWGYAGDTPTTGIYREKGDTVATQ
notes: as for B1
B5: EcAIII (Escherichia coli K-12; M200W) (protein)
chain 1: GKAVIAIHGGAGAISRAQMSLQQELRYIEALSAIVETGQKMLEAGESALDVVTEAVRLLEECPLFNAGIGAVFTRDETHELDACVMDGNTLKAGAVAGVSHLRNPVLAARLVMEQSPHVMMIGEGAENFAFARGMERVSPEIFSTSLRYEQLLAARKEGATVLDHSGAPLDEKQKMG
chain 2: TVGAVALDLDGNLAAATSTGGWTNKLPGRVGDSPLVGAGCYANNASVAVSCTGTGEVFIRALAAYDIAALMDYGGLSLAEACERVVMEKLPALGGSGGLIAIDHEGNVALPFNTEGMYRAWGYAGDTPTTGIYREKGDTVATQ
notes: as for B1
B6: EcAIII (Escherichia coli K-12; M200I) (protein)
chain 1: GKAVIAIHGGAGAISRAQMSLQQELRYIEALSAIVETGQKMLEAGESALDVVTEAVRLLEECPLFNAGIGAVFTRDETHELDACVMDGNTLKAGAVAGVSHLRNPVLAARLVMEQSPHVMMIGEGAENFAFARGMERVSPEIFSTSLRYEQLLAARKEGATVLDHSGAPLDEKQKMG
chain 2: TVGAVALDLDGNLAAATSTGGITNKLPGRVGDSPLVGAGCYANNASVAVSCTGTGEVFIRALAAYDIAALMDYGGLSLAEACERVVMEKLPALGGSGGLIAIDHEGNVALPFNTEGMYRAWGYAGDTPTTGIYREKGDTVATQ
notes: as for B1

Molecular target: T1, EcAIII (Escherichia coli, UniProt P37595, M200L)
T1 construct: gene iaaA; untagged as described; EcAIII gene in pET11d, bacterial expression; precursor autoproteolytically matured to subunits alpha and beta from one gene, (alphabeta)2; purified by DEAE and SEC
Assay: X-ray crystal structure
Type: binding
Settings: covalent; beta-acyl-enzyme intermediate on Thr179, chain D

**Q.** For NC(=O)C[C@H](N)C(=O)O [L-Asn], which X-ray crystal structure is on record?
**A.** in the structure of variant M200L in chain D, we identified an acyl‐enzyme intermediate

Substrate: NC(=O)C[C@H](N)C(=O)O
Assay: purified protein
Type: biochemical, Escherichia coli
Settings: 20 mM Tris-HCl pH 8.0, 20 °C, L-Asn 0-84 mM

**Q.** B1 was tested. Which Km did it give?
**A.** 22 ± 3 mM

**Q.** What about the kcat of the same molecule?
**A.** 501 ± 22.3 s⁻¹

**Q.** Which Km does the source give for B2 here?
**A.** 40 ± 9 mM

**Q.** What about the kcat of the same molecule?
**A.** 127 ± 11.9 s⁻¹

**Q.** With B3 as the molecule, how does the Km read?
**A.** 64 ± 6 mM

**Q.** What about the kcat of the same molecule?
**A.** 217 ± 10.6 s⁻¹

**Q.** B4 was tested. Which Km did it give?
**A.** 37 ± 5 mM

**Q.** And the kcat?
**A.** 195 ± 12.7 s⁻¹

**Q.** For B5, which Km is on record?
**A.** 36 ± 10 mM

**Q.** What about the kcat of the same molecule?
**A.** 290 ± 37.3 s⁻¹

**Q.** How did the Km turn out when B6 was run?
**A.** 35 ± 4 mM

**Q.** And the kcat?
**A.** 632 ± 37.9 s⁻¹

Molecular target: T2, EcAIII (Escherichia coli, UniProt P37595, M200T)
T2 construct: gene iaaA; untagged as described; EcAIII gene in pET11d, bacterial expression; precursor autoproteolytically matured to subunits alpha and beta from one gene, (alphabeta)2; purified by DEAE and SEC
Assay: X-ray crystal structure
Type: binding
Settings: M200T#m monoclinic, 1.84 Å; Gly added at 1:1 molar ratio; active site, two of four sites

**Q.** Which X-ray crystal structure does the source give for NCC(=O)O [Gly] here?
**A.** In the structure M200T#m, glycine molecules were found in two out of four active sites.
